In this test the target is Omikron (Botswana, B.1.1.529) RBD (SARS-CoV-2 (Omicron, B.1.1.529)) (UniProt P0DTC2). Kind of test: ELISA.

From article PMC8920075 come the findings set out here.

Turning to REGN10933 (Casirivimab) (antibody), the 50% effective concentration (EC50) came out at 0.0394 µM.
